According to PMC3298750 (Nature immunology, 2011):
Non-standard residues stand in square brackets, D forms with d. No end group written: not given here. pS = N[C@@H](COP(=O)(O)O)C(=O)O

target: 15N-WW domain of Pin1 (tag removed) (UniProt Q13526 5-39, 15N-labelled); assay: NMR titration
Sequence (Q13526 5-39): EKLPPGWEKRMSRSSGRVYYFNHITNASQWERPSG

Kd [µM]	Binder
120 ± 12	STFL[pS]PAFPGS [IRAK1 phosphopeptide 140-150 (pSer144-P145)]
260 ± 75	ELGLVPSPASLWPPPP[pS]PAPSSTK [IRAK1 phosphopeptide 157-180 (pSer173-P174)]
220 ± 15	EAEAW[pS]PRKLP [IRAK1 phosphopeptide 126-136 (pSer131-P132)]
